Literature values in patent publication US7833964B2, “Methods of reducing visceral fat by increasing levels of insulin-like growth factor-I (IGF-I)” (Tercica, Inc., priority 2003, dated 2010).

Experiments:
[1] = target: T1, placental insulin receptor (Homo sapiens, UniProt P06213); details: relative to the comparator named in the value; cited from earlier work
T1 construct: the placental insulin receptor; host or cells: placenta (endogenous receptor)

[2] = tested on: Type I IGF receptor of rat and mouse cells; details: relative to IGF-I; cited from earlier work
[3] = target: T2, human placental Type I IGF receptor (Homo sapiens, UniProt P08069); details: relative to the comparator named in the value; cited from earlier work
T2 construct: the human placental Type I IGF receptor; host or cells: human placenta (endogenous receptor)

Type 2 IGF receptor = details: relative to human IGF-I; cited from earlier work

(Leu^24)IGF-I: functional mutant of IGF-I described in Cascieri et al. 1988
affinity to the insulin receptor [1]: lower affinity than IGF-I | affinity to the Type I IGF receptor of rat and mouse cells [2]: lower affinity than IGF-I | affinity to the Type I IGF receptor [3]: lower affinity than IGF-I

(Phe^23, Phe^24, Tyr^25)IGF-I: functional mutant of IGF-I described in Cascieri et al. 1988
affinity to the insulin receptor [1]: equipotent to human IGF-I | affinity to the Type 2 IGF receptor (Type 2 IGF receptor): equipotent to human IGF-I | affinity to the Type I IGF receptor [3]: equipotent to human IGF-I

(Ser^24)IGF-I: functional mutant of IGF-I described in Cascieri et al. 1988
affinity to the insulin receptor [1]: lower affinity than IGF-I | affinity to the Type I IGF receptor of rat and mouse cells [2]: lower affinity than IGF-I | affinity to the Type I IGF receptor [3]: lower affinity than IGF-I
